Experimental findings from US20250041339A1 (University of Pennsylvania, published 2025) are described below.

Numbering of substitutions follows the chain as printed.

Test [1] addresses T1, tCD45_RO_T8A (CD45RO with Thr8 changed to alanine) (human, UniProt P08575 1-604).
T1 construct: The entry already carries the substitution, the signal peptide and the myc tag
T1 sequence: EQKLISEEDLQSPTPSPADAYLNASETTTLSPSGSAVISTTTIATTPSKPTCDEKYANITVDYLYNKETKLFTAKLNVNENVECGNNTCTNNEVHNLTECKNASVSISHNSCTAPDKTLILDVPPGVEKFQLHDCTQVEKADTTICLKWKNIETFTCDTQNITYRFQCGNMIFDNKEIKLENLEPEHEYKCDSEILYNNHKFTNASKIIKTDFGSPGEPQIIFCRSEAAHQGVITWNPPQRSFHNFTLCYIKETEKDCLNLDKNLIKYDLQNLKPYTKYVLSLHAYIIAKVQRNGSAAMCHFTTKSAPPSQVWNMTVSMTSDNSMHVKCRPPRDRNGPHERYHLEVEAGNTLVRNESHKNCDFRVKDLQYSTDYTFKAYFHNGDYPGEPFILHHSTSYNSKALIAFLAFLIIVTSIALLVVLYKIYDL
The test can be described thus: antibody staining (figure cited in the text as FIG. 42, left).

Test [2] concerns the target T2, tCD45RO_WT (truncated, N-terminally myc-tagged wild-type CD45RO construct) (human, UniProt P08575 1-604).
T2 construct: Expressed from lentivirus on CD45-negative NALM6 cells; also called WT CD45; CD45 WT
T2 sequence: T1 sequence with A18T
The test can be described thus: flow cytometry, his-tag staining of cells expressing myc-tagged truncated CD45 constructs. The text has this: (§1) With the information obtained from the crystal structure (and given that FN domains are evolutionary conserved and stable structures), and without wishing to be bound by theory, it was hypothesized that the subdomains which are recognized by the CAR45-T cells can be narrowed down by sequentially truncating the extracellular domain. The constructs to generate the truncated CD45 constructs were de novo synthesized (FIG. 24A). To verify surface expression of the truncated CD45 constructs, all constructs were myc-tagged at the N-terminus to allow surface staining against the truncated CD45 expressing cell using anti-Myc antibodies followed by readout via flowcytometry. Cells expressing the truncated CD45 constructs were stained with recombinantly expressed, his-tagged scFv/antibody clones from which the CARs were made off. Positive staining for the his tag therefore only occurs when the scFv/antibody clones can bind truncated CD45.
(In general: In flow cytometry, cells or beads pass a laser one at a time.)

Test [3] addresses T2, tCD45RO_WT (truncated, N-terminally …). The test can be described thus: staining of cells expressing truncated CD45 constructs with his-tagged scFv/antibody clones.
Source text: as §1

B1: antibody clone UCHL-1 (CD45RO-specific) (antibody, V domains shown)
VH: QITLKESGPGILQPSQTLSLTCSFSGFSLTTYGIGVGWIRQPPGKGLEWLTHIWWNDNKYYNTALRSRLTISKDSSNNQVLLKIANVDTADTATYYCLYGYTYWGQGTLVTVSA
VL: DVVMTQTPLSLPVSLGDQASISCRSSQSLLYSNGNTYLHWYLQKPGQSPKLLIYKLSNRFSGVPDRFSGSGSGTDFTLKISRVEAEDLGVYFCSQSTHVPWTFGGGTKLEIK
notes: also called muUCHL
For the molecule B1, in test [1], the binding result is given as “no binding”.

B2: recombinantly expressed, his-tagged scFv from the BC8 clone (scFv, V domains shown)
VH: QVQLVESGGGLVQPGGSLKLSCAASGFDFSRYWMSWVRQAPGKGLEWIGEINPTSSTINFTPSLKDKVFISRDNAKNTLYLQMSKVRSEDTALYYCARGNYYRYGDAMDYWGQGTSVTVS
VL: DIVLTQSPASLAVSLGQRATISCRASKSVSTSGYSYLHWYQQKPGQPPKLLIYLASNLESGVPARFSGSGSGTDFTLNIHPVEEEDAATYYCQHSRELPFTFGSGTKLEIK
notes: Soluble his-tagged scFv used to stain cells; also called BC8 scFv
In the case of B2, the binding result in test [2] is given as “binds”.

B3: recombinantly expressed, his-tagged scFv/antibody clone 4B2 (scFv, V domains shown)
VH: GVQLQESGAELARPGASVKMSCKASGYTFTSYTMQWVKQRPGQGLEWIGYINPSSGYIKYNQKFKDKVTLTADKSSTTAYMQLSRLTSEDSAVYYCARRGSYFFDFWGQGTSVTVSS
VL: DIVITQDELSNPVTSGESVSISCRSSKSLLYKDGKTYLNWFLQRPGQSPQLLIYLMSTRASGVSDRFSGSGSGTDFTLEISRVKAEDVGVYYCQQLVEYPFTFGGGTKLEVK
notes: Soluble his-tagged scFv/antibody clone used to stain cells expressing truncated CD45; also called 4B2 scFv
In the case of B3, in test [3], the binding result was “binds”.

B4: recombinantly expressed, his-tagged scFv/antibody clone 9.4 (scFv, V domains shown)
VH: QVQLQQLGAELARPGASVKMSCKASGYTFTSYSIQWVKQRPGQGLEWIGYINPSSGYIKYNQHFRDRATLTADRSSSTAYMQLSSLTSEDSAVYYCARGNSGSFDYWGQGTTLTVSS
VL: DIVMTQAAPSVPVTPGESLSISCRSSKSLLHSSGITYLYWFLQRPGQSPQLLIYRMSNLASGVPDRFSGSGSGTAFTLRISRVEAEDVGVYYCMQHLEYPFTFGGGTKLEIK
notes: Soluble his-tagged scFv/antibody clone used to stain cells expressing truncated CD45; also called 9.4 scFv
On to B4, for which the binding result in test [3] is recorded as “binds”.

B5: recombinantly expressed, his-tagged scFv/antibody clone Gap8.3 (scFv, V domains shown)
VH: EVQLQQSGPELVKTGASVKISCKASGYSFTGYFIHWVKQSHGKSLEWIGYISCYNGATSYNQKFKGKATFTVDTSSSTAYMQFNSVTSEDSAVYYCVRNYYGNLDAMDYWGQGTSVTVSS
VL: DIVMTQSHKFMSTSVGDRVSITCKASQDVSTAVAWYQQKPGQSPKILIYSASYRYTGVPDRFTGSGSGTDFTFTISSVQAEDLAVYYCQQHYSTPRTFGGGTKLEIK
notes: Soluble his-tagged scFv/antibody clone used to stain cells expressing truncated CD45; also called Gap8.3 scFv
On to B5, for which the binding result in test [3] was “binds”.
